From the FLAb antibody collection (doi:10.1101/2023.12.08.570889)

B1: unnamed (protein)
chain 1: QMQLVESGGGVVQPGRSLRLSCAASGFTFRTYGMHWVRQAPGKGLEWVAVIWYDGSNKHYADSVKGRFTITRDNSKNTLNLQMNSLRAEDTAVYYCARAPRYDEYWEAFDVWGQGTMVTVSS
chain 2: SYVLTQPPSVSVAPGQTARITCGGNNLGSKSVHWYQQKPGQAPVLVVYDDSDRPSWIPERFSGSNSGNTATLTISRGEAGDEADYYCQVWDSSSDHVVFGGGTKLTVL
B2: unnamed (protein)
chain 1: QMQLVESGGGVVQPGRSLRLSCAASGFTFRTYGMHWVRQAPGKGLEWVAVIWYDGSNKHYADSVKGRFTITRDNSKNTLNLQMNSLRAEDTAVYYCARSPRYDWYYEAFDVWGQGTMVTVSS
chain 2: SYVLTQPPSVSVAPGQTARITCGGNNLGSKSVHWYQQKPGQAPVLVVYDDSDRPSWIPERFSGSNSGNTATLTISRGEAGDEADYYCQVWDSSSDHVVFGGGTKLTVL
B3: unnamed (protein)
chain 1: QMQLVESGGGVVQPGRSLRLSCAASGFTFRTYGMHWVRQAPGKGLEWVAVIWYDGSNKHYADSVKGRFTITRDNSKNTLNLQMNSLRAEDTAVYYCARSPRYDDYYEAFDVWGQGTMVTVSS
chain 2: SYVLTQPPSVSVAPGQTARITCGGNNLGSKSVHWYQQKPGQAPVLVVYDDSDRPSWIPERFSGSNSGNTATLTISRGEAGDEADYYCQVWDSSSDHVVFGGGTKLTVL
B4: unnamed (protein)
chain 1: QMQLVESGGGVVQPGRSLRLSCAASGFTFRTYGMHWVRQAPGKGLEWVAVIWYDGSNKHYADSVKGRFTITRDNSKNTLNLQMNSLRAEDTAVYYCARAPRYDWTYEAFDVWGQGTMVTVSS
chain 2: SYVLTQPPSVSVAPGQTARITCGGNNLGSKSVHWYQQKPGQAPVLVVYDDSDRPSWIPERFSGSNSGNTATLTISRGEAGDEADYYCQVWDSSSDHVVFGGGTKLTVL
B5: unnamed (protein)
chain 1: QMQLVESGGGVVQPGRSLRLSCAASGFTFRTYGMHWVRQAPGKGLEWVAVIWYDGSNKHYADSVKGRFTITRDNSKNTLNLQMNSLRAEDTAVYYCARAPRYDYYYEAFDVWGQGTMVTVSS
chain 2: SYVLTQPPSVSVAPGQTARITCGGNNLGSKSVHWYQQKPGQAPVLVVYDDSDRPSWIPERFSGSNSGNTATLTISRGEAGDEADYYCQVWDSSSDHVVFGGGTKLTVL
B6: unnamed (protein)
chain 1: QMQLVESGGGVVQPGRSLRLSCAASGFTFRTYGMHWVRQAPGKGLEWVAVIWYDGSNKHYADSVKGRFTITRDNSKNTLNLQMNSLRAEDTAVYYCARAPRYYEYLEAFDVWGQGTMVTVSS
chain 2: SYVLTQPPSVSVAPGQTARITCGGNNLGSKSVHWYQQKPGQAPVLVVYDDSDRPSWIPERFSGSNSGNTATLTISRGEAGDEADYYCQVWDSSSDHVVFGGGTKLTVL
B7: unnamed (protein)
chain 1: QMQLVESGGGVVQPGRSLRLSCAASGFTFRTYGMHWVRQAPGKGLEWVAVIWYDGSNKHYADSVKGRFTITRDNSKNTLNLQMNSLRAEDTAVYYCARAPRYDWYYEAFDVWGQGTMVTVSS
chain 2: SYVLTQPPSVSVAPGQTARITCGGNNLGSKSVHWYQQKPGQAPVLVVYDDSDRPSWIPERFSGSNSGNTATLTISRGEAGDEADYYCQVWDSSSDHVVFGGGTKLTVL
B8: unnamed (protein)
chain 1: QMQLVESGGGVVQPGRSLRLSCAASGFTFRTYGMHWVRQAPGKGLEWVAVIWYDGSNKHYADSVKGRFTITRDNSKNTLNLQMNSLRAEDTAVYYCARAPRYYDAYEAFDVWGQGTMVTVSS
chain 2: SYVLTQPPSVSVAPGQTARITCGGNNLGSKSVHWYQQKPGQAPVLVVYDDSDRPSWIPERFSGSNSGNTATLTISRGEAGDEADYYCQVWDSSSDHVVFGGGTKLTVL
B9: unnamed (protein)
chain 1: QMQLVESGGGVVQPGRSLRLSCAASGFTFRTYGMHWVRQAPGKGLEWVAVIWYDGSNKHYADSVKGRFTITRDNSKNTLNLQMNSLRAEDTAVYYCARAPRYYEAYEAFDVWGQGTMVTVSS
chain 2: SYVLTQPPSVSVAPGQTARITCGGNNLGSKSVHWYQQKPGQAPVLVVYDDSDRPSWIPERFSGSNSGNTATLTISRGEAGDEADYYCQVWDSSSDHVVFGGGTKLTVL
B10: unnamed (protein)
chain 1: QMQLVESGGGVVQPGRSLRLSCAASGFTFRTYGMHWVRQAPGKGLEWVAVIWYDGSNKHYADSVKGRFTITRDNSKNTLNLQMNSLRAEDTAVYYCARAPRYDEHYEAFDVWGQGTMVTVSS
chain 2: SYVLTQPPSVSVAPGQTARITCGGNNLGSKSVHWYQQKPGQAPVLVVYDDSDRPSWIPERFSGSNSGNTATLTISRGEAGDEADYYCQVWDSSSDHVVFGGGTKLTVL
B11: unnamed (protein)
chain 1: QMQLVESGGGVVQPGRSLRLSCAASGFTFRTYGMHWVRQAPGKGLEWVAVIWYDGSNKHYADSVKGRFTITRDNSKNTLNLQMNSLRAEDTAVYYCARAPRYDETWEAFDVWGQGTMVTVSS
chain 2: SYVLTQPPSVSVAPGQTARITCGGNNLGSKSVHWYQQKPGQAPVLVVYDDSDRPSWIPERFSGSNSGNTATLTISRGEAGDEADYYCQVWDSSSDHVVFGGGTKLTVL
B12: unnamed (protein)
chain 1: QMQLVESGGGVVQPGRSLRLSCAASGFTFRTYGMHWVRQAPGKGLEWVAVIWYDGSNKHYADSVKGRFTITRDNSKNTLNLQMNSLRAEDTAVYYCARAPRYDEEYEAFDVWGQGTMVTVSS
chain 2: SYVLTQPPSVSVAPGQTARITCGGNNLGSKSVHWYQQKPGQAPVLVVYDDSDRPSWIPERFSGSNSGNTATLTISRGEAGDEADYYCQVWDSSSDHVVFGGGTKLTVL
B13: unnamed (protein)
chain 1: QMQLVESGGGVVQPGRSLRLSCAASGFTFRTYGMHWVRQAPGKGLEWVAVIWYDGSNKHYADSVKGRFTITRDNSKNTLNLQMNSLRAEDTAVYYCARAPRYDDYYDAFDVWGQGTMVTVSS
chain 2: SYVLTQPPSVSVAPGQTARITCGGNNLGSKSVHWYQQKPGQAPVLVVYDDSDRPSWIPERFSGSNSGNTATLTISRGEAGDEADYYCQVWDSSSDHVVFGGGTKLTVL
B14: unnamed (protein)
chain 1: QMQLVESGGGVVQPGRSLRLSCAASGFTFRTYGMHWVRQAPGKGLEWVAVIWYDGSNKHYADSVKGRFTITRDNSKNTLNLQMNSLRAEDTAVYYCARAPRYDYYWEAFDVWGQGTMVTVSS
chain 2: SYVLTQPPSVSVAPGQTARITCGGNNLGSKSVHWYQQKPGQAPVLVVYDDSDRPSWIPERFSGSNSGNTATLTISRGEAGDEADYYCQVWDSSSDHVVFGGGTKLTVL
B15: unnamed (protein)
chain 1: QMQLVESGGGVVQPGRSLRLSCAASGFTFRTYGMHWVRQAPGKGLEWVAVIWYDGSNKHYADSVKGRFTITRDNSKNTLNLQMNSLRAEDTAVYYCARAPRYDWYVEAFDVWGQGTMVTVSS
chain 2: SYVLTQPPSVSVAPGQTARITCGGNNLGSKSVHWYQQKPGQAPVLVVYDDSDRPSWIPERFSGSNSGNTATLTISRGEAGDEADYYCQVWDSSSDHVVFGGGTKLTVL
B16: unnamed (protein)
chain 1: QMQLVESGGGVVQPGRSLRLSCAASGFTFRTYGMHWVRQAPGKGLEWVAVIWYDGSNKHYADSVKGRFTITRDNSKNTLNLQMNSLRAEDTAVYYCARAPRYYDYYEAFDVWGQGTMVTVSS
chain 2: SYVLTQPPSVSVAPGQTARITCGGNNLGSKSVHWYQQKPGQAPVLVVYDDSDRPSWIPERFSGSNSGNTATLTISRGEAGDEADYYCQVWDSSSDHVVFGGGTKLTVL
B17: unnamed (protein)
chain 1: QMQLVESGGGVVQPGRSLRLSCAASGFTFRTYGMHWVRQAPGKGLEWVAVIWYDGSNKHYADSVKGRFTITRDNSKNTLNLQMNSLRAEDTAVYYCARAPRYYWYWEAFDVWGQGTMVTVSS
chain 2: SYVLTQPPSVSVAPGQTARITCGGNNLGSKSVHWYQQKPGQAPVLVVYDDSDRPSWIPERFSGSNSGNTATLTISRGEAGDEADYYCQVWDSSSDHVVFGGGTKLTVL
B18: unnamed (protein)
chain 1: QMQLVESGGGVVQPGRSLRLSCAASGFTFRTYGMHWVRQAPGKGLEWVAVIWYDGSNKHYADSVKGRFTITRDNSKNTLNLQMNSLRAEDTAVYYCARAPRYYDYLEAFDVWGQGTMVTVSS
chain 2: SYVLTQPPSVSVAPGQTARITCGGNNLGSKSVHWYQQKPGQAPVLVVYDDSDRPSWIPERFSGSNSGNTATLTISRGEAGDEADYYCQVWDSSSDHVVFGGGTKLTVL
B19: unnamed (protein)
chain 1: QMQLVESGGGVVQPGRSLRLSCAASGFTFRTYGMHWVRQAPGKGLEWVAVIWYDGSNKHYADSVKGRFTITRDNSKNTLNLQMNSLRAEDTAVYYCARAPRYYEYWEAFDVWGQGTMVTVSS
chain 2: SYVLTQPPSVSVAPGQTARITCGGNNLGSKSVHWYQQKPGQAPVLVVYDDSDRPSWIPERFSGSNSGNTATLTISRGEAGDEADYYCQVWDSSSDHVVFGGGTKLTVL

Biological target: TSLP, Q969D9
Experiment: Kd (SPR)

Row | Binder | Kd [nM]
1 | B1 | 84.9
2 | B2 | 122
3 | B3 | 186
4 | B4 | 128
5 | B5 | 138
6 | B6 | 31.9
7 | B7 | 48.2
8 | B8 | 33.5
9 | B9 | 31
10 | B10 | 168
11 | B11 | 141
12 | B12 | 78.9
13 | B13 | 163
14 | B14 | 175
15 | B15 | 54.2
16 | B16 | 33.2
17 | B17 | 23.6
18 | B18 | 22.6
19 | B19 | 29.2
